Assay [1] deals with HLA-A*0301 (human). Description: competition with 125I-labelled standard peptide on purified HLA-A*0301, gel filtration. (SEC sorts molecules by how far they enter the pores of the column.)
Another assay has as its target HLA-A*1101 (human). Description: competition with a 125I-labelled standard peptide for purified HLA-A*1101, gel filtration. The note with it: scale: ratio.
Assay [2] addresses HLA-A*0301 (human). Description: competition with 125I-labelled standard peptide for purified HLA-A*0301, gel filtration; ratio to the A*0301 standard peptide 941.12 [..] (11 nM).
In assay [3] the target is HLA-A*0101 (human). Description: competition with 125I-labeled standard peptide for purified HLA-A*0101, gel filtration.
The target in assay [4] is HLA-A*0206 (human). Description: inhibition of 125I-standard peptide binding to purified HLA, gel filtration.
Assay [5] concerns the target HLA-A*0201 (human). Described as above.
In assay [6] the target is HLA-A*0101 (human). Description: competition with 125I-labelled standard peptide for purified HLA-A*0101, gel filtration.
The target of assay [7] is HLA-A*0203 (human). Description: competitive inhibition of 125I-labelled standard peptide binding to purified HLA, gel filtration.
Assay [8] has as its target HLA-A*0201 (human). The assay is described as above.
In assay [9] the target is HLA-A*0201 (human). Description: inhibition of 125I-labelled standard peptide binding to purified HLA-A*0201, gel filtration.
In another assay the target is HLA-A*6802 (human). Description: inhibition of 125I-labelled standard peptide binding to purified HLA-A*6802, gel filtration.
Assay [10] has as its target HLA-A*0203 (human). Description: inhibition of 125I-labelled standard peptide binding to purified HLA-A*0203, gel filtration.
Assay [11] has as its target HLA-A*0202 (human). Description: inhibition of 125I-labelled standard peptide binding to purified HLA-A*0202, gel filtration.
In assay [12] the target is HLA-A*0206 (human). Description: inhibition of 125I-labelled standard peptide binding to purified HLA-A*0206, gel filtration.
Assay [13] addresses HLA-A*0203 (human). Description: inhibition of 125I-standard peptide binding to purified HLA, gel filtration.
In assay [14] the target is HLA-A*0202 (human). The description is as above.
Assay [15] has as its target HLA-A*0202 (human). Description: competitive inhibition of 125I-labelled standard peptide binding to purified HLA, gel filtration.
The mark [16] stands for this setting: remark: other sources report otherwise.

Like-named read-outs stand apart in the source and are kept apart here.

Turning to LLSYPNKTH (modifications not checked) [… (PSM, position 116)], the binding affinity ratio (IC50 of standard peptide / IC50 of test peptide) in the assay with HLA-A*0301 (human) [1] worked out at 0.0006. Regarding EIASKFSER (modifications not checked) [PSM 641 peptide …], the binding affinity ratio with HLA-A*1101 (human) worked out at 0.0002. With DALFDIESK (modifications not checked) [PSM 710 peptide …], the binding affinity ratio (IC50 of standard peptide / IC50 of test peptide) with HLA-A*0301 (human) [2] amounted to 0.0006. For DVLLSYPNK (modifications not checked) [PSM 114 peptide …], the binding affinity ratio with HLA-A*1101 (human) amounted to 0.001.

With LLEKMGGSA (modifications not checked) [… (PSM, position 305)], the binding affinity ratio (IC50 of standard peptide / IC50 of test peptide) in the assay with HLA-A*0301 (human) [1] turned out to be 0.0006. KAENIKKFLY (modifications not checked) [… (PSM, position 66)]: the binding affinity ratio (IC50 of standard peptide / IC50 of test peptide) with HLA-A*0101 (human) [3] was determined as 0.0001. Regarding LLRLSEPAKI (modifications not checked) [Kallikrein 123 …], the binding affinity ratio (IC50 standard peptide / IC50 test peptide) (ratio to standard peptide) with HLA-A*0206 (human) [4] (setting [16]) was 0.001; in the assay with HLA-A*0201 (human) [5] (setting [16]) it was 0.003. DTFPTDPIK (modifications not checked) [PAP 51 peptide …]: in the assay with HLA-A*1101 (human), the binding affinity ratio worked out at 0.0001.

In the case of LTQLGMEQHY (modifications not checked) [… (PAP, position 70)], in the assay with HLA-A*0101 (human) [6] (setting [16]), the binding affinity ratio (IC50 of standard peptide / IC50 of test peptide) is 0.62. LLHETDSAVA (modifications not checked) [… (PSM, position 4)]: in the assay with HLA-A*0301 (human) [1], the binding affinity ratio (IC50 of standard peptide / IC50 of test peptide) worked out at 0.0005. As to RGAVEPDRY (modifications not checked) [… (PSM, position 363)], the binding affinity ratio (IC50 of standard peptide / IC50 of test peptide) with HLA-A*0101 (human) [6] came out at 0.0001. The term IC50 denotes the concentration at which inhibition is half-maximal. Take SLHLLSNDMCA (modifications not checked) [peptide 1419.14 … (HuK2.175)]: the IC50 was 73 nM with HLA-A*0203 (human) [7] (setting [16]) and 72 nM in the assay with HLA-A*0201 (human) [8] (setting [16]).

Regarding CALPEKPA (modifications not checked) [CALPEKPA (Kallikrein, position 234)], the binding affinity ratio (IC50 of standard peptide / IC50 of test peptide) with HLA-A*0201 (human) [9], with HLA-A*6802 (human), in the assay with HLA-A*0203 (human) [10], in the assay with HLA-A*0202 (human) [11] and with HLA-A*0206 (human) [12] was -0.0001 each time.

Regarding LPERPSLY (modifications not checked) [LPERPSLY (PSA, position 232)], in the assay with HLA-A*0101 (human) [3], the binding affinity ratio (IC50 of standard peptide / IC50 of test peptide) stood at 0.0002.

For the molecule WGEVKRQIY (modifications not checked) [… (PSM, position 725)], the binding affinity ratio (IC50 of standard peptide / IC50 of test peptide) with HLA-A*0101 (human) [6] worked out at 0.001.

Take LTPKKLQCVDL (modifications not checked) [PSA 162 …]: the binding affinity ratio (IC50 standard peptide / IC50 test peptide) (ratio to standard peptide) with HLA-A*0203 (human) [13] (setting [16]) was 0.0074; with HLA-A*0202 (human) [14] (setting [16]), 0.0087. With CSGKIVIARY (modifications not checked) [PSM 196 peptide …], the binding affinity ratio (IC50 of standard peptide / IC50 of test peptide) with HLA-A*0301 (human) [2] (setting [16]) came to 0.06. For EPALGTTCY (modifications not checked) [… (Kallikrein, position 145; PSA, position 141)], in the assay with HLA-A*0101 (human) [3], the binding affinity ratio (IC50 of standard peptide / IC50 of test peptide) came out at 0.0011. As for LLSNDMCARA (modifications not checked) [Kallikrein 178 …], the binding affinity ratio (IC50 standard peptide / IC50 test peptide) (ratio to standard peptide) is 0.002 with HLA-A*0206 (human) [4] (setting [16]), 0.028 in the assay with HLA-A*0203 (human) [13] (setting [16]), 0.08 with HLA-A*0202 (human) [14] (setting [16]) and 0.003 in the assay with HLA-A*0201 (human) [5] (setting [16]). As for AGESFPGIY (modifications not checked) [… (PSM, position 701)], in the assay with HLA-A*0101 (human) [3], the binding affinity ratio (IC50 of standard peptide / IC50 of test peptide) amounted to 0.004. On to DIESKVDPSK (modifications not checked) [PSM 714 peptide …], for which the binding affinity ratio in the assay with HLA-A*1101 (human) amounted to 0.0002. The binding affinity ratio (IC50 of standard peptide / IC50 of test peptide) with HLA-A*0301 (human) [2] worked out at 0.0003. In the case of LTLSVTWIGAA (modifications not checked), the binding affinity ratio (IC50 standard peptide / IC50 test peptide) (ratio to standard peptide) in the assay with HLA-A*0206 (human) [4] (setting [16]) is 0.0025; in the assay with HLA-A*0203 (human) [13] (setting [16]), 0.037; with HLA-A*0202 (human) [14] (setting [16]), 0.0014; with HLA-A*0201 (human) [5] (setting [16]), 0.0008. With CLKKNSQV (modifications not checked) [CLKKNSQV (Kallikrein, position 66)], the binding affinity ratio (IC50 of standard peptide / IC50 of test peptide) is 0.0001 with HLA-A*0201 (human) [9]; -0.0001 in the assay with HLA-A*6802 (human); 0.0006 with HLA-A*0203 (human) [10]; 0.0006 in the assay with HLA-A*0202 (human) [11]; -0.0001 with HLA-A*0206 (human) [12]. For LLPPYASCH (modifications not checked) [… (PAP, position 306)], in the assay with HLA-A*0301 (human) [1], the binding affinity ratio (IC50 of standard peptide / IC50 of test peptide) came out at 0.001. Consider LTLSVTWI (modifications not checked) [PSA 4 LTLSVTWI], for which the binding affinity ratio (IC50 standard peptide / IC50 test peptide) (ratio to standard peptide) with HLA-A*0203 (human) [13] is 0.0006; in the assay with HLA-A*0202 (human) [14] it was -0.0001; with HLA-A*0201 (human) [5], 0.0003. CSPSCPLER (modifications not checked) [PAP 347 peptide …]: the binding affinity ratio (IC50 of standard peptide / IC50 of test peptide) with HLA-A*0301 (human) [2] turned out to be 0.004. With LTDAVKVM (modifications not checked) [PSA 128 LTDAVKVM], the binding affinity ratio (IC50 standard peptide / IC50 test peptide) (ratio to standard peptide) in the assay with HLA-A*0206 (human) [4] was -0.0001; with HLA-A*0203 (human) [13], 0.0002; with HLA-A*0202 (human) [14] it was -0.0001; with HLA-A*0201 (human) [5], 0.0001. For the molecule TYELVEKFY (modifications not checked) [… (PSM, position 558)], in the assay with HLA-A*0101 (human) [6], the binding affinity ratio (IC50 of standard peptide / IC50 of test peptide) came to 0.001. As for LFEPPPPGY (modifications not checked) [… (PSM, position 143)], the binding affinity ratio (IC50 of standard peptide / IC50 of test peptide) in the assay with HLA-A*0101 (human) [3] worked out at 0.001. In the case of CALPEKPAVYT (modifications not checked) [… (Kallikrein, position 234)], the binding affinity ratio (IC50 of standard peptide / IC50 of test peptide) in the assay with HLA-A*0201 (human) [9] (setting [16]) is 0.0008; with HLA-A*6802 (human) (setting [16]), -0.0002. With ITDVVKVLGL (modifications not checked) [… (Kallikrein, position 132)], the binding affinity ratio (ratio to standard peptide) with HLA-A*0203 (human) [7] stood at 0.0088; in the assay with HLA-A*0202 (human) [15] it was 0.0084; with HLA-A*0201 (human) [8], 0.0003. CLKKNSQVWL (modifications not checked) [… (Kallikrein, position 66)]: the binding affinity ratio (IC50 of standard peptide / IC50 of test peptide) with HLA-A*0201 (human) [9] (setting [16]) is 0.0001; in the assay with HLA-A*6802 (human) (setting [16]), -0.0001; with HLA-A*0206 (human) [12] (setting [16]) it was 0.0002. For LTLSVTWIGA (modifications not checked), the binding affinity ratio (IC50 standard peptide / IC50 test peptide) (ratio to standard peptide) with HLA-A*0206 (human) [4] (setting [16]) was 0.011; with HLA-A*0203 (human) [13] (setting [16]), 0.082; in the assay with HLA-A*0202 (human) [14] (setting [16]), 0.045; with HLA-A*0201 (human) [5] (setting [16]), 0.0018. Turning to LSLLSLYGIH (modifications not checked) [… (PAP, position 241)], the binding affinity ratio (IC50 of standard peptide / IC50 of test peptide) in the assay with HLA-A*0301 (human) [1] turned out to be 0.0003. For the molecule CAGLWTGGKDT (modifications not checked) [… (Kallikrein, position 198)], the binding affinity ratio (IC50 of standard peptide / IC50 of test peptide) in the assay with HLA-A*0201 (human) [9] was 0.0001; with HLA-A*6802 (human) it was -0.0002; with HLA-A*0202 (human) [11] it was 0.0003; in the assay with HLA-A*0206 (human) [12] it was -0.0001.

The values are drawn from US20070020327A1.
